Assay results published in paper PMC11154707, “Polymer-based antibody mimetics (iBodies) target human PD-L1 and function as a potent immune checkpoint blocker” (The Journal of Biological Chemistry, 2024).
pEC50, pKd: −log10 of the molar value.

Tests used:
[1] = biological target: T1, PD-1/PD-L1 engagement (hPD-L1-overexpressing Raji B cells, hPD-1-overexpressing Jurkat T cells) (Homo sapiens, UniProt Q9NZQ7); test: IL-2 production in PD-L1 Raji B / PD-1 Jurkat T cell co-culture with SEE; assay type: cell-based; conditions: 25 pg/ml SEE, 24 h co-culture, IL-2 ELISA of supernatants; read-out: EC50 of restored T cell activation (IL-2)
T1 construct: expressed in transfected cells; host or cells: Raji B cells (PD-L1) co-cultured with Jurkat T cells (PD-1)
T1 sequence (Q9NZQ7 19-290): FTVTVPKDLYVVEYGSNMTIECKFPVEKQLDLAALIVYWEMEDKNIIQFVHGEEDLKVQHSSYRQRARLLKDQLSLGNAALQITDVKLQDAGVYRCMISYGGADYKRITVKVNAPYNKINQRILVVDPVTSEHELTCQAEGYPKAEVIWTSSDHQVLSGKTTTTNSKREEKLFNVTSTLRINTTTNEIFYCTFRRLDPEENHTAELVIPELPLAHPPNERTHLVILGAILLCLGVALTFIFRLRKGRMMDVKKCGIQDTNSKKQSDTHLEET
Method: (§1) B, PD-L1-overexpressing Raji B cells were pre-incubated with a dilution series of α-PD-L1 compounds in the presence of 25 pg/ml SEE for 1 h and then co-cultured in a 1:1 ratio with PD-1-overexpressing Jurkat T cells for 24 h. Supernatants were collected, and IL-2 levels were measured using ELISA. EC50 was calculated using a 4-parameter logistic function in GraphPad Prism 9.0.0. Data are representative of five independent experiments performed in duplicates, with error bars indicating the standard deviation. C, PD-L1-overexpressing Raji B cells were pre-incubated with 2 nM of α-PD-L1 compounds in the presence of 25 pg/ml SEE for 1 h and then co-cultured in a 1:1 ratio with PD-1-overexpressing Jurkat T cells for 18 h. Cells were collected and stained with BV421-conjugated anti-human CD69 antibody. […] Cells were measured with a BD LSRFortessa instrument (Fig. S9). Data are represented as median fluorescence intensity (MFI). Error bars indicate the standard deviation. D, histograms indicate the percentage of CD69-expressing cells (gated above the basal CD69 expression in the absence of SEE; no SEE). Data were analyzed with FlowJo 10.4.1 and are representative of three independent experiments performed in duplicates. MFI comparison was carried out using a one-way ANOVA test in GraphPad Prism 9.0.0. ∗∗ indicates p-value < 0.01; ns = not significant.

[2] = biological target: T1, PD-1/PD-L1 engagement (hPD-L1-overexpressing Raji B cells, hPD-1-overexpressing Jurkat T cells); test: Membrane CD69 expression in PD-L1 Raji B / PD-1 Jurkat T cell co-culture with SEE; assay type: cell-based; conditions: 2 nM compound, 18 h co-culture; for overall expression of CD69 compared with non-treated samples: MFI, one-way ANOVA; for % CD69 (percentage of CD69-expressing cells): gated above basal CD69 without SEE
Method: as §1
Co-culture for analysis of CD69 expression was set up similarly as above, except that cells were incubated for 18 h in the presence of 2 nM of all compounds. Next, cells were collected by centrifugation (600g, 6 min) and washed once with 200 μl PBS. Corresponding wells were stained with 100 μl of 1:100 BV421-anti-human CD69 antibody (BD Biosciences, cat# 562884) or 100 ng/well isotype control antibody (BD Biosciences cat# 562438) in PBS for 30 min at 4 °C. Afterwards, cells were washed three times with 200 μl PBS followed by viability staining using 100 μl of 1:1000 Zombie NIR fixable viability kit (Biolegend, cat# 423106) in PBS. Finally, the measurement was carried out on an LSRFortessa Flow Cytometer (Becton, Dickinson and Company) and analyzed with FlowJo 10.4.1. The cell population was gated based on their forward and side scatter properties, followed by gating for single and viable cells. The Gating strategy is explained in the Fig. S9.

PD-L1 [3] = system: PD-L1; design: method as in http://en.atagenix.com/product_detail-23647.html, 30; conditions: indirect ELISA; ref http://en.atagenix.com/product_detail-23647.html, 30; read-out: published EC50, indirect ELISA; cited from earlier work
PD-L1 [4] = conditions: read-out: published Kd; cited from earlier work

For “durvalumab: FDA-approved PD-L1-targeting monoclonal antibody”, the pEC50 [1] was 9.22, the “overall expression of CD69 compared with non-treated samples” value [2] was “substantial increase” and the “% CD69 (percentage of CD69-expressing cells)” value [2] was 36±1%. The pEC50 (PD-L1 [3]) was about 9.49.
In the case of “avelumab: FDA-approved PD-L1-targeting monoclonal antibody”, the pKd (PD-L1 [4]) is listed as 10.40.
With “atezolizumab: FDA-approved PD-L1-targeting monoclonal antibody” the pEC50 [1] was 9.52, the “overall expression of CD69 compared with non-treated samples” value [2] was “substantial increase” and the “% CD69 (percentage of CD69-expressing cells)” value [2] was 33±4%.
